In this assay the target is EGFR receptors of A431 human epidermoid carcinoma cells (human) (UniProt P00533).

For the substance “DTox-HMP-NLS-EGF after refolding (from UniProt P00588 198-384; P24232 1-396; P01133 971-1023)”, the Ka was 5.4e+13 M⁻¹ and the fold increase of affinity after refolding against before refolding is more than 2.8 fold.

These data come from patent publication US9095624.
